The source of these data is US20060177442A1 (Bristol-Myers Squibb, published 2006).

The target of this experiment is T1, CD30 on Hodgkin-derived cell lines (L540, L428) (human, UniProt P28908 19-595).
T1 sequence (looked up): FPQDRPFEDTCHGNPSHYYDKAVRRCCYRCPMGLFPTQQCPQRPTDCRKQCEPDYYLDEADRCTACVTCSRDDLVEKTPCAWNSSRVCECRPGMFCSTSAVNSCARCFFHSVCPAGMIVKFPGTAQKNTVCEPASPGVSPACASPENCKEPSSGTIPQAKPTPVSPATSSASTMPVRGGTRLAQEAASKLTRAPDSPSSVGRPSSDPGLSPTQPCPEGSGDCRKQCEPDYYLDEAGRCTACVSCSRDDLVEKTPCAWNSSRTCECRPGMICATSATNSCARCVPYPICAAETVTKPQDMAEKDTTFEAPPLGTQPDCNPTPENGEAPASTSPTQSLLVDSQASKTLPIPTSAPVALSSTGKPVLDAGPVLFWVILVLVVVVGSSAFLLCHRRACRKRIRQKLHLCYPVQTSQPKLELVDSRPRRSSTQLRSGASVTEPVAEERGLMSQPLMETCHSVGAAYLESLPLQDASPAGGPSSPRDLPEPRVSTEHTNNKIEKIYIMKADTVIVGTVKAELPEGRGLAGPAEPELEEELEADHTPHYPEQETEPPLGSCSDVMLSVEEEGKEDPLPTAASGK
Nature of the experiment: cell-based or functional assay.

B1: fully human anti-CD30 monoclonal antibody 5F11 (antibody, V domains shown)
VH: QVQLQQWGAGLLKPSETLSLTCAVYGGSFSAYYWSWIRQPPGKGLEWIGDINHGGGTNYNPSLKSRVTISVDTSKNQFSLKLNSVTAADTAVYYCASLTAYWGQGSLVTVSS
VL: DIQMTQSPTSLSASVGDRVTITCRASQGISSWLTWYQQKPEKAPKSLIYAASSLQSGVPSRFSGSGSGTDFTLTISSLQPEDFATYYCQQYDSYPITFGQGTRLEIK
Regarding B1, the “NF-κB-responsive luciferase reporter gene in transfected L428 cells” value was approximately 2 fold.
